Results: PMC8531759

Columns and labels:
Assay in all cases: SEC; Sephacryl S-400R in buffer C (20 mM Na-phosphate pH 7.4, 100 mM NaCl, 0.05% dodecyl beta-maltoside); absorbance at 280 nm; apparent molecular weight by comparison to globular protein standards; self-association, hexamer
[1] = target: AbSGR-h D34N mutant (Anaerolineae bacterium SM23_63)
[2] = target: AbSGR-h D62N mutant (Anaerolineae bacterium SM23_63)
[3] = target: AbSGR-h H32A mutant (Anaerolineae bacterium SM23_63)
[4] = target: AbSGR-h T36A mutant (Anaerolineae bacterium SM23_63)
[5] = target: Anaerolineae bacterium SM23_63 SGR homolog (AbSGR-h), wild-type (Anaerolineae bacterium SM23_63)

AbSGR-h D34N mutant (enzyme)
stoichiometry N [1]: 6

AbSGR-h D62N mutant (enzyme)
stoichiometry N [2]: 6

AbSGR-h H32A mutant (enzyme)
stoichiometry N [3]: 6

AbSGR-h T36A mutant (enzyme)
stoichiometry N [4]: 6

Anaerolineae bacterium SM23_63 SGR homolog (AbSGR-h), wild-type (enzyme)
stoichiometry N [5]: 6
